Results as given in paper PMC12458081.

Target: T1, Fkh1-DBD (Saccharomyces cerevisiae, UniProt P40466 299-421)
T1 sequence: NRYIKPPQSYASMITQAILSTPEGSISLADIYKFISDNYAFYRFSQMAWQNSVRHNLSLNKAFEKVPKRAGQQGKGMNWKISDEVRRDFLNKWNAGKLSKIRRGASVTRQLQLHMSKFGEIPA
Test: X-ray crystallography

B1: 19-bp DNA binding oligo (dsDNA)
DNA 1: CGAAATGTAAACATACCGC
DNA 2: GCGGTATGTTTACATTTCG
binding result: binds
